Target: T1, flag-tagged wild-type Gli1 (human, UniProt P08151 1-1106)
T1 construct: Transiently expressed in BE3 cells without TNFα stimulation; also called flag-Gli1WT; flag-Gli1; not shown: flag tag from vector p3flag-CMV10
T1 sequence (looked up): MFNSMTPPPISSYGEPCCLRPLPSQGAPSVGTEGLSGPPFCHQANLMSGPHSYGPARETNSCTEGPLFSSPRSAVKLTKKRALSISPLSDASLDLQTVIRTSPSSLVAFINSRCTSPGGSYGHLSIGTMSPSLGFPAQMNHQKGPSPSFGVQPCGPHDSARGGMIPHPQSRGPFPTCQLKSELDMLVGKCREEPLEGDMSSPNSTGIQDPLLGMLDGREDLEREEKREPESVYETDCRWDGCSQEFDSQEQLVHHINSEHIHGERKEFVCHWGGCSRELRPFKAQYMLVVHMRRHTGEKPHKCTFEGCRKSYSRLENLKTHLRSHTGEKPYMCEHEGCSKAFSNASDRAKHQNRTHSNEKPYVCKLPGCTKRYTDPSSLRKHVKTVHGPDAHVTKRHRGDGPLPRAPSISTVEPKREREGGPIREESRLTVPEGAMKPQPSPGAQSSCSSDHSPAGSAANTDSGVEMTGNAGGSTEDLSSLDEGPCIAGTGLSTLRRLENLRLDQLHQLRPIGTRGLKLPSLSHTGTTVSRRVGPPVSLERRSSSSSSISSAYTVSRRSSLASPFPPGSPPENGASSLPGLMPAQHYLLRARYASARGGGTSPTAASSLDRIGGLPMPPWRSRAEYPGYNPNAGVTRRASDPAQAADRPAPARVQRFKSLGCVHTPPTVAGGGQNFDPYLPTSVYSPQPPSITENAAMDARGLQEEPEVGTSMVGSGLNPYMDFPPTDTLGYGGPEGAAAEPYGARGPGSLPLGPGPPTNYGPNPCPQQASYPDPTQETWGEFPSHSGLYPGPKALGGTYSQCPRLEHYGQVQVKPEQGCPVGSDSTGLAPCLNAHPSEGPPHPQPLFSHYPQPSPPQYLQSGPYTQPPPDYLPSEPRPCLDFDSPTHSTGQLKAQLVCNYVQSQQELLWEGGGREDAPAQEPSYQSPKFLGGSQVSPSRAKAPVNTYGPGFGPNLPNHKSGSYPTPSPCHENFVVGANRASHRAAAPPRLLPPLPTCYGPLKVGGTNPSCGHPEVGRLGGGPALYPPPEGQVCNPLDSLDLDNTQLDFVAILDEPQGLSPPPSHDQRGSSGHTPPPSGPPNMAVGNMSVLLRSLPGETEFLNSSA
Experiment: IP-Western, flag-tagged Gli1WT transfected into BE3 cells

B1: SuFu (other, human, UniProt Q9UMX1 1-484, looked up)
chain: MAELRPSGAPGPTAPPAPGPTAPPAFASLFPPGLHAIYGECRRLYPDQPNPLQVTAIVKYWLGGPDPLDYVSMYRNVGSPSANIPEHWHYISFGLSDLYGDNRVHEFTGTDGPSGFGFELTFRLKRETGESAPPTWPAELMQGLARYVFQSENTFCSGDHVSWHSPLDNSESRIQHMLLTEDPQMQPVQTPFGVVTFLQIVGVCTEELHSAQQWNGQGILELLRTVPIAGGPWLITDMRRGETIFEIDPHLQERVDKGIETDGSNLSGVSAKCAWDDLSRPPEDDEDSRSICIGTQPRRLSGKDTEQIRETLRRGLEINSKPVLPPINPQRQNGLAHDRAPSRKDSLESDSSTAIIPHELIRTRQLESVHLKFNQESGALIPLCLRGRLLHGRHFTYKSITGDMAITFVSTGVEGAFATEEHPYAAHGPWLQILLTEEFVEKMLEDLEDLTSPEEFKLPKEYSWPEKKLKVSILPDVVFDSPLH
notes: also called suppressor of fused
- binding result: binds

From patent US20150017651A1 (University of Texas, published 2015)
